Assay results from patent US5945329A, “Customized proteases” (Carlsberg A/S, priority 1997, dated 1999).
Peptide text beside a SMILES is read from it. * marks the point of attachment. Bz = O=C(c1ccccc1)*

Legend:
[1] = biological target: T1, carboxypeptidase Y (CPD-Y) variant N51Q (Asn51 replaced with glutamine) (Saccharomyces cerevisiae, UniProt P00729, N162Q); assay: Aminolysis; KN(app) of nucleophile; format: biochemical, yeast; conditions: Table V; amino acid nucleophile, FA-Ala-OBzl as substrate, pH 7.5
T1 construct: made in house; host or cells: S. cerevisiae W2579 (secreted)
T1 sequence (P00729 112-532 N162Q): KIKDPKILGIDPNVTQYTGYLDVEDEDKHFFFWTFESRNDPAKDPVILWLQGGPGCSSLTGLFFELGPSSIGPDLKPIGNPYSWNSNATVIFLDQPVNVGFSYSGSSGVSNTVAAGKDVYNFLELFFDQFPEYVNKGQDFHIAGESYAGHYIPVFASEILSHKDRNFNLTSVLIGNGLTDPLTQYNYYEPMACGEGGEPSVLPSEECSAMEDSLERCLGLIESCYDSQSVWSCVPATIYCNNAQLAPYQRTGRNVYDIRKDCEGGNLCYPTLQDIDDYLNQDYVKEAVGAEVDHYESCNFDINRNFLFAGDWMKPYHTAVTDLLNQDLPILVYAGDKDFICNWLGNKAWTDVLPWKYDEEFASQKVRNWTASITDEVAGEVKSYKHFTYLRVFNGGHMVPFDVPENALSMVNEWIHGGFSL
Method: (§1) Aminolysis reactions were carried out in the following way. The nucleophile was dissolved in 50 mM Hepes, 5 mM EDTA and pH was adjusted to 7.5. Five (5) μl of substrate (8 mM FA-Ala-OBzl in methanol) was added to 190 μl nucleophile solution followed by 5 μl enzyme, resulting in a substrate concentration of 0.2 mM. For reactions carried out at pH 9.5, Hepes was replaced with Ches. During the reaction, 20 μl aliquots were removed from the reaction mixture and added to 50 μl 1% trifluoroacetic acid to quench the reaction. The reactant composition was determined by HPLC using a Waters HPLC equipped with a C-18 Waters Novapac 4μ reverse phase column and various gradients of acetonitrile in 0.1% trifluoroacetic acid. The separation was monitored at 302 nm allowing the direct quantification of the products from the integrated peak areas. The composition of the reaction mixture was determined at least twice during the reaction, the first time when 20-50% (preferably 35%) of the ester substrate had been consumed in the reaction and the second time when 50-90% (preferably 80%) of the substrate had been consumed. The products were collected and identified by amino acid analysis after acid hydrolysis using a Pharmacia Alpha Plus analyzer.
(§2) Further identification was obtained by co-chromatography of authentic standard compounds. The fraction of aminolysis (fa) was expressed as the ratio between the formed aminolysis product and the sum of all products being formed, i.e., unconsumed substrate was disregarded in the calculations. The KN(app), representing the nucleophile concentration at which fa is half the maximum value (a measure for the dissociation constant of the nucleophile), and famax (the highest possible fa obtained at saturation of the enzyme with nucleophile) were determined by fitting the values of fa obtained at a minimum of seven concentrations of nucleophile to a saturation. The value of fa obtained at the highest possible nucleophile concentration is designated fasat.
(§3) Aminolysis reactions were carried out in the following way. The nucleophile was dissolved in 50 mM HEPES, 5 mM EDTA and pH was adjusted to 7.5, 5 μl substrate (8 mM FA-Ala-OBzl or FA-Ala-Xaa-OH in methanol) was added to 190 μl nucleophile solution followed by 5 μl enzyme diluted in buffer to the appropriate concentration, resulting in a substrate concentration of 0.2 mM. During the reaction, 20 μl aliquots were removed from the reaction mixture and added to 50 μl 1% trifluoroacetic acid to quench the reaction. The reactant composition was determined by HPLC using a Waters HPLC equipped with a C-18 Waters Novapac 4μ reverse phase column and various gradients of acetonitrile in 0.1% trifluoroacetic acid. The separation was monitored at 302 nm allowing the direct quantification of the products from the integrated peak areas. The products were collected and identified by amino acid analysis after acid hydrolysis (Pharmacia Alpha Plus analyzer) and by co-chromatography of authentic standards. The fraction of aminolysis (fa) was expressed as the ratio between the formed aminolysis product and the sum of all products being formed, i.e. unconsumed substrate was disregarded in the calculations. The KN,app (a measure for the dissociation constant of the nucleophile) and famax (the highest possible fa obtained at saturation with nucleophile were determined by fitting the obtained fa values to the equation fa=famax /(1+KN,app /N).

[2] = biological target: T2, yeast carboxypeptidase Y (CPD-Y), wild type (SEQ ID NO:32) (Saccharomyces cerevisiae, UniProt P00729); assay: Aminolysis of ester/peptide substrates; KN(app) of nucleophile; format: biochemical; conditions: for KN(app): Table III (unit as in Tables I, II), ester substrate; for KN,app (H-Gly-NH2 as nucleophile): substance of the line is the substrate (leaving group phenylalanine or L-β-phenyllactic acid), enzyme not named, taken as CPD-Y
T2 construct: purchased Carlbiotech, Copenhagen, Denmark
T2 sequence (P00729 112-532): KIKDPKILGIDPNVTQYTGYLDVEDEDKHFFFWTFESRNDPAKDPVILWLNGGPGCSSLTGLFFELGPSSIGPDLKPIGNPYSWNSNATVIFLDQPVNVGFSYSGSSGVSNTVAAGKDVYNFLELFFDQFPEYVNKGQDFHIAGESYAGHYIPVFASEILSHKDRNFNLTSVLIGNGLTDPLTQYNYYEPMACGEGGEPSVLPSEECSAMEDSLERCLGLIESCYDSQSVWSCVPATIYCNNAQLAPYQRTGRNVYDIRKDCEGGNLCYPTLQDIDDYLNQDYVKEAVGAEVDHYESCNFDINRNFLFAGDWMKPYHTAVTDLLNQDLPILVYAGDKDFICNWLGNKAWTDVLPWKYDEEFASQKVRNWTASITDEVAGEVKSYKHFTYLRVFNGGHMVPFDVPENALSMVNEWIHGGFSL
Method: as §1, §2, §3

[3] = substrate: CC(C)[C@H](NC(=O)[C@H](Cc1ccccc1)NC(=O)C=Cc1ccco1)C(=O)O; assay: Hydrolysis of FA-Phe-Val-OH; format: biochemical, yeast; conditions: other: hydrolysis of FA-Phe-Val-OH

estimated CPD-Y activity relative to wild type transformants (fold of wild type) (CBZ-Ser-Leu-OH)	estimated CPD-Y activity relative to wild type transformants (fold of wild type) (CBZ-His-Leu-OH)	estimated CPD-Y activity relative to wild type transformants (fold of wild type) (CBZ-Lys-Leu-OH)	estimated CPD-Y activity relative to wild type transformants (fold of wild type) (CBZ-Gly-Leu-OH)	estimated CPD-Y activity relative to wild type transformants (fold of wild type) (CBZ-Glu-Leu-OH)	estimated CPD-Y activity relative to wild type transformants (fold of wild type) (CBZ-Phe-Leu-OH)	estimated CPD-Y activity relative to wild type transformants (fold of wild type) (CBZ-Trp-Leu-OH)	estimated CPD-Y activity relative to wild type transformants (fold of wild type) (CBZ-Pro-Leu-OH)	Molecule	KN(app) ([2]; amino acid nucleophile) [mM]	other results
–	–	–	–	–	–	–	–	C[C@H](N)C(=O)O [H--Ala--OH, H-Ala-OH]	83 ± 7	Kn,app [1]: 250 ± 15 mM; Kn,app ([2]; Table V, amino acid nucleophile, FA-Ala-OBzl as substrate, pH 7.5): 83 ± 7 mM
–	–	–	–	–	–	–	–	NC(=O)CC[C@H](N)C(=O)O [H--Gln--OH, H-Gln-OH]	150 ± 8	–
–	–	–	–	–	–	–	–	NCC(=O)O [H--Gly--OH, H-Gly-OH]	1500 ± 50	–
–	–	–	–	–	–	–	–	N[C@@H](Cc1c[nH]cn1)C(=O)O [H--His--OH, H-His-OH]	87 ± 9	–
–	–	–	–	–	–	–	–	NCCCC[C@H](N)C(=O)O [H--Lys--OH, H-Lys-OH]	190 ± 30	–
–	–	–	–	–	–	–	–	N[C@@H](Cc1ccccc1)C(=O)O [H--Phe--OH, H-Phe-OH]	9.5 ± 1	Kn,app [1]: 29 ± 1 mM
–	–	–	–	–	–	–	–	N[C@@H](CO)C(=O)O [H--Ser--OH, H-Ser-OH]	310 ± 20	–
–	–	–	–	–	–	–	–	O=C(CNC(=O)c1ccccc1)N[C@@H](Cc1ccccc1)C(=O)O [Hippuryl-L-Phe-OH] (Bz-Gly-Phe-OH)	–	KN,app (H-Gly-NH2 as nucleophile) [2]: 0.63±0.06
–	–	–	–	–	–	–	–	O=C(CNC(=O)c1ccccc1)O[C@@H](Cc1ccccc1)C(=O)O [Hippuryl-L-β-Phenyllactic acid]	–	KN,app (H-Gly-NH2 as nucleophile) [2]: 0.47±0.05
1.3	1	4	1.1	1.4	1.2	1.1	0.6	carboxypeptidase Y mutant 178Ala/215Ser/216Arg (enzyme)	–	–
0.7	1.3	4.4	0.7	2	2.8	2	0.9	carboxypeptidase Y mutant 178Asn/215Ala/216Gly (enzyme)	–	–
0.5	1.7	6.9	0.9	1.1	–	1	0.3	carboxypeptidase Y mutant 178Cys (enzyme)	–	–
0.4	1.1	5.3	0.8	1.1	1	0.9	1.6	carboxypeptidase Y mutant 178Cys/215Thr/216Trp (enzyme)	–	–
0.3	0.8	4.6	0.3	0.8	0.8	0.5	0.5	carboxypeptidase Y mutant 178Gly/340Ile/341Cys (enzyme)	–	–
1.1	1.1	3.6	0.8	1	0.9	1.5	1.2	carboxypeptidase Y mutant 178His/215Pro/216Thr (enzyme)	–	–
1	1.1	3.1	0.8	1.2	0.9	1.7	1.2	carboxypeptidase Y mutant 178His/215Thr/216Phe (enzyme)	–	–
–	–	–	–	–	–	–	–	carboxypeptidase Y (CPD-Y) variant N51Q (Asn51 replaced with glutamine) (Saccharomyces cerevisiae S288C; N162Q) (protein, made in house; host or cells: S. cerevisiae W2579 (secreted)) KIKDPKILGIDPNVTQYTGYLDVEDEDKHFFFWTFESRNDPAKDPVILWLQGGPGCSSLTGLFFELGPSSIGPDLKPIGNPYSWNSNATVIFLDQPVNVGFSYSGSSGVSNTVAAGKDVYNFLELFFDQFPEYVNKGQDFHIAGESYAGHYIPVFASEILSHKDRNFNLTSVLIGNGLTDPLTQYNYYEPMACGEGGEPSVLPSEECSAMEDSLERCLGLIESCYDSQSVWSCVPATIYCNNAQLAPYQRTGRNVYDIRKDCEGGNLCYPTLQDIDDYLNQDYVKEAVGAEVDHYESCNFDINRNFLFAGDWMKPYHTAVTDLLNQDLPILVYAGDKDFICNWLGNKAWTDVLPWKYDEEFASQKVRNWTASITDEVAGEVKSYKHFTYLRVFNGGHMVPFDVPENALSMVNEWIHGGFSL	–	Km [3]: 85 µM; kcat [3]: 25 s⁻¹; kcat/Km [3]: 300000 M⁻¹ s⁻¹
